In patent publication US20130089516A1:
Where “and” joins values, the source holds several entries; their conditions need not be identical. Equal values may be shown once. Values belong to the substance of their own block, whether it stands above or below them.

Experiments:
[1] = molecular target: mouse IL-2/IL-2Rα fusion proteins (2× and 4× linker lengths); experiment: sandwich ELISA (JES6-1A12 capture, JES5H4 detection by the general methods), PSA-treated against buffer-treated fusion protein
[2] = molecular target: IL-2 portion of the mouse IL-2/IL-2Rα fusion proteins (mouse) (UniProt P04351); experiment: cell-based or functional assay
IL-2 portion of the mouse IL-2/IL-2Rα fusion proteins (mouse), sequence (P04351 21-169 limits assumed): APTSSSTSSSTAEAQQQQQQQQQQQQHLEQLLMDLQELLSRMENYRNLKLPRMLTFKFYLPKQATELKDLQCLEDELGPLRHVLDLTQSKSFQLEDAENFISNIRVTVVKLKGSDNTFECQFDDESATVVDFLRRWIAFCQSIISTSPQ

[3] = molecular target: recombinant human IL-2 (Peprotech) (human) (UniProt P60568); experiment: modified phage ELISA, human IL-2 coated; 2 µg/ml MQ1-17H12 added, then scFv-2 phage (competitor)
recombinant human IL-2 (Peprotech) (human), sequence (P60568 21-153 limits assumed): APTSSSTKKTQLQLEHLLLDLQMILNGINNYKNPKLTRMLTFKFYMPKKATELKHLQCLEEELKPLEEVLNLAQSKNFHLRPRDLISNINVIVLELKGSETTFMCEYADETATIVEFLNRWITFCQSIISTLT

- fold increase in the apparent amount of IL-2 detected after PSA cleavage [1]: 2 fold and 4 fold
Substance: rat anti-mouse IL-2 monoclonal antibody JES6-1A12 (BD Pharmingen)

- attenuation of IL-2 biologic activity in the intact uncleaved fusion protein against the equivalent amount of free IL-2, CTLL-2 bioassay [2]: > 60 fold
- increase of biologically active IL-2 after PSA cleavage of the fusion protein with the 2× linker, CTLL-2 / MTT assay [2]: 3.5 fold
- increase of biologically active IL-2 after PSA cleavage of the fusion protein with the 4× linker, CTLL-2 / MTT assay [2]: 9 fold
Substance: IL-2Rα portion of the mouse IL-2/IL-2Rα fusion proteins (soluble form of the alpha chain of the IL-2 receptor) (from UniProt P01590 22-236)

- percent blocking of scFv-2 phage binding [3]: 70%
Substance: neutralizing anti-human IL-2 monoclonal antibody MQ1-17H12 (eBioscience)
